Assay results: the Immune Epitope Database (IEDB)

target: HLA-A*02:02; experiment: IEDB peptide-MHC binding, purified MHC/competitive/radioactivity; ≥ and ≤ were set here for values at or beyond the usual limits of such assays; conditions: source organism: Hepacivirus hominis

Q: With ALLSCISVPV as the sequence, how does the IC50 read?
A: 41 nM

Q: With ALMIAAQVVV as the sequence, how does the IC50 read?
A: 50 nM

Q: Which IC50 does the source give for FISGIQYLA here?
A: 8.6 nM

Q: QMWKCLIRL was tested. Which IC50 did it give?
A: 175 nM

Q: For RLWHYPCTV, which IC50 is on record?
A: 165 nM

Q: YLNTPGLPV was tested. Which IC50 did it give?
A: 9.3 nM

same assay, conditions: source organism: Influenza A virus

Q: FNMLSTVLGV was tested. Which IC50 did it give?
A: 16 nM

Q: With MLLRSAIGQV as the sequence, how does the IC50 read?
A: 1390 nM

same assay, conditions: source organism: Mammarenavirus choriomeningitidis

Q: ALMDLLMFS was tested. Which IC50 did it give?
A: 0.94 nM

same assay, conditions: source organism: Mammarenavirus machupoense

Q: ALNIALVAV was tested. Which IC50 did it give?
A: 15 nM

Q: Which IC50 does the source give for AMPGVLSYV here?
A: 4.2 nM

same assay, conditions: source organism: SARS-CoV1

Q: AIAACAMLLV was tested. Which IC50 did it give?
A: 5.9 nM

Q: With AIILASFSA as the sequence, how does the IC50 read?
A: 201 nM

Q: How did the IC50 turn out when AIMTRCLAV was run?
A: 51 nM

Q: Which IC50 does the source give for ALIARCWYL here?
A: 0.2 nM

Q: ALLFLMSFTI was tested. Which IC50 did it give?
A: 0.37 nM

Q: ALVCYIVMPV was tested. Which IC50 did it give?
A: 1.2 nM

Q: ALYKGFQFI was tested. Which IC50 did it give?
A: 0.53 nM

Q: FLITGVFDI was tested. Which IC50 did it give?
A: 0.69 nM

Q: FLLVTLAIL was tested. Which IC50 did it give?
A: 0.64 nM

Q: How did the IC50 turn out when FLNRFTTTL was run?
A: 0.66 nM

Q: For FLTSLLILV, which IC50 is on record?
A: 2.2 nM

Q: Which IC50 does the source give for FTYASALWEI here?
A: 1.6 nM

Q: How did the IC50 turn out when SMWALVISV was run?
A: 6.1 nM

Q: How did the IC50 turn out when TLLCVLAAL was run?
A: 8.1 nM

Q: Which IC50 does the source give for TLMNVITLV here?
A: 0.34 nM

Q: Which IC50 does the source give for TLNEDLLEI here?
A: 1.4 nM

Q: VLAWLYAAV was tested. Which IC50 did it give?
A: 0.097 nM

same assay, conditions: source organism: Vaccinia virus WR

Q: How did the IC50 turn out when AAAATCALV was run?
A: 15 nM

Q: Which IC50 does the source give for AADLTQIFEV here?
A: 1240 nM

Q: AAIDRQVSV was tested. Which IC50 did it give?
A: 933 nM

Q: For AAITLVVISV, which IC50 is on record?
A: 501 nM

Q: For AAVIIMAINV, which IC50 is on record?
A: 1290 nM

Q: Which IC50 does the source give for AIFNNRNLA here?
A: 272 nM

Q: How did the IC50 turn out when AIFNNRNLAA was run?
A: 450 nM

Q: For AILHNIYRL, which IC50 is on record?
A: 106 nM

Q: For AISAVYFKA, which IC50 is on record?
A: 3.7 nM

Q: How did the IC50 turn out when AISYCRAFI was run?
A: 17 nM

Q: AITLVVISVI was tested. Which IC50 did it give?
A: 406 nM

Q: Which IC50 does the source give for ALAEHISDSI here?
A: 0.2 nM

Q: How did the IC50 turn out when ALINLVQYRI was run?
A: 8.3 nM

Q: Which IC50 does the source give for ALKAYFTAKI here?
A: 194 nM

Q: With ALVSDCAST as the sequence, how does the IC50 read?
A: 701 nM

Q: With ALVSDCASTI as the sequence, how does the IC50 read?
A: 94 nM

Q: How did the IC50 turn out when ALYSPPLISI was run?
A: 1.4 nM

Q: With AMLKSKNINI as the sequence, how does the IC50 read?
A: 1650 nM

Q: With ATFRDMLLNV as the sequence, how does the IC50 read?
A: 7.1 nM

Q: For ATICLKNEGV, which IC50 is on record?
A: 436 nM

Q: With ATLNTLITLI as the sequence, how does the IC50 read?
A: 32 nM

Q: With IIGHIGHHYI as the sequence, how does the IC50 read?
A: 400 nM

Q: KLRSSPPIPM was tested. Which IC50 did it give?
A: 58 nM

Q: With KTIAVSVYGA as the sequence, how does the IC50 read?
A: 366 nM

Q: How did the IC50 turn out when MTSTRTIILV was run?
A: 1980 nM

Q: Which IC50 does the source give for RIEDMFLTSV here?
A: 548 nM

Q: SLFIESSICL was tested. Which IC50 did it give?
A: 99 nM

Q: Which IC50 does the source give for YTRPEIDVL here?
A: 115 nM

target: HLA-A*68:02; experiment: as above; conditions: source organism: Hepacivirus hominis

Q: With ALLSCISVPV as the sequence, how does the IC50 read?
A: 1270 nM

Q: Which IC50 does the source give for ALMIAAQVVV here?
A: 1420 nM

Q: For FISGIQYLA, which IC50 is on record?
A: 12 nM

Q: With QMWKCLIRL as the sequence, how does the IC50 read?
A: 3230 nM

Q: RLWHYPCTV was tested. Which IC50 did it give?
A: 4310 nM

Q: With YLNTPGLPV as the sequence, how does the IC50 read?
A: 196 nM

same assay, conditions: source organism: Influenza A virus

Q: FNMLSTVLGV was tested. Which IC50 did it give?
A: 860 nM

Q: With MLLRSAIGQV as the sequence, how does the IC50 read?
A: 1710 nM

same assay, conditions: source organism: Mammarenavirus choriomeningitidis

Q: With ALMDLLMFS as the sequence, how does the IC50 read?
A: 2990 nM

same assay, conditions: source organism: Mammarenavirus machupoense

Q: Which IC50 does the source give for ALNIALVAV here?
A: 3340 nM

Q: For AMPGVLSYV, which IC50 is on record?
A: 834 nM

same assay, conditions: source organism: SARS-CoV1

Q: For AIAACAMLLV, which IC50 is on record?
A: 1430 nM

Q: For AIILASFSA, which IC50 is on record?
A: 870 nM

Q: For AIMTRCLAV, which IC50 is on record?
A: 1300 nM

Q: With ALIARCWYL as the sequence, how does the IC50 read?
A: 1260 nM

Q: For ALLFLMSFTI, which IC50 is on record?
A: 1770 nM

Q: With ALVCYIVMPV as the sequence, how does the IC50 read?
A: 88 nM

Q: ALYKGFQFI was tested. Which IC50 did it give?
A: 4450 nM

Q: Which IC50 does the source give for FLITGVFDI here?
A: 62 nM

Q: Which IC50 does the source give for FLLVTLAIL here?
A: 1900 nM

Q: FLNRFTTTL was tested. Which IC50 did it give?
A: 286 nM

Q: With FLTSLLILV as the sequence, how does the IC50 read?
A: 260 nM

Q: Which IC50 does the source give for FTYASALWEI here?
A: 1.7 nM

Q: SMWALVISV was tested. Which IC50 did it give?
A: 252 nM

Q: TLLCVLAAL was tested. Which IC50 did it give?
A: 431 nM

Q: For TLMNVITLV, which IC50 is on record?
A: 13 nM

Q: For TLNEDLLEI, which IC50 is on record?
A: 1460 nM

Q: With VLAWLYAAV as the sequence, how does the IC50 read?
A: 37 nM

same assay, conditions: source organism: Vaccinia virus WR

Q: Which IC50 does the source give for AAAATCALV here?
A: 12 nM

Q: AADLTQIFEV was tested. Which IC50 did it give?
A: 4350 nM

Q: With AAIDRQVSV as the sequence, how does the IC50 read?
A: 1440 nM

Q: With AAITLVVISV as the sequence, how does the IC50 read?
A: 715 nM

Q: AAVIIMAINV was tested. Which IC50 did it give?
A: 95 nM

Q: For AIFNNRNLA, which IC50 is on record?
A: 372 nM

Q: For AIFNNRNLAA, which IC50 is on record?
A: 2860 nM

Q: With AILHNIYRL as the sequence, how does the IC50 read?
A: 2570 nM

Q: For AISAVYFKA, which IC50 is on record?
A: 77 nM

Q: For AISYCRAFI, which IC50 is on record?
A: 98 nM

Q: How did the IC50 turn out when AITLVVISVI was run?
A: 2380 nM

Q: How did the IC50 turn out when ALAEHISDSI was run?
A: 272 nM

Q: With ALINLVQYRI as the sequence, how does the IC50 read?
A: 1770 nM

Q: Which IC50 does the source give for ALKAYFTAKI here?
A: 4110 nM

Q: With ALVSDCAST as the sequence, how does the IC50 read?
A: 771 nM

Q: For ALVSDCASTI, which IC50 is on record?
A: 530 nM

Q: For ALYSPPLISI, which IC50 is on record?
A: 323 nM

Q: For AMLKSKNINI, which IC50 is on record?
A: 4740 nM

Q: ATFRDMLLNV was tested. Which IC50 did it give?
A: 511 nM

Q: For ATICLKNEGV, which IC50 is on record?
A: 87 nM

Q: Which IC50 does the source give for ATLNTLITLI here?
A: 1050 nM

Q: With IIGHIGHHYI as the sequence, how does the IC50 read?
A: 222 nM

Q: Which IC50 does the source give for KLRSSPPIPM here?
A: 4280 nM

Q: Which IC50 does the source give for KTIAVSVYGA here?
A: 235 nM

Q: How did the IC50 turn out when MTSTRTIILV was run?
A: 173 nM

Q: With RIEDMFLTSV as the sequence, how does the IC50 read?
A: 1430 nM

Q: With SLFIESSICL as the sequence, how does the IC50 read?
A: 2160 nM

Q: For SMHFYGWSL, which IC50 is on record?
A: 11 nM

Q: For YTRPEIDVL, which IC50 is on record?
A: 528 nM

target: HLA-A*02:03; experiment: as above; conditions: source organism: Hepacivirus hominis

Q: How did the IC50 turn out when ALLSCISVPV was run?
A: 43 nM

Q: For ALMIAAQVVV, which IC50 is on record?
A: 71 nM

Q: Which IC50 does the source give for FISGIQYLA here?
A: 832 nM

Q: QMWKCLIRL was tested. Which IC50 did it give?
A: 317 nM

Q: Which IC50 does the source give for RLWHYPCTV here?
A: 17 nM

Q: How did the IC50 turn out when YLNTPGLPV was run?
A: 12 nM

same assay, conditions: source organism: Influenza A virus

Q: For FNMLSTVLGV, which IC50 is on record?
A: 11 nM

Q: MLLRSAIGQV was tested. Which IC50 did it give?
A: 7 nM

Q: Which IC50 does the source give for NMLSTVLGV here?
A: 10 nM

same assay, conditions: source organism: Mammarenavirus choriomeningitidis

Q: Which IC50 does the source give for ALMDLLMFS here?
A: 104 nM

same assay, conditions: source organism: Mammarenavirus machupoense

Q: How did the IC50 turn out when ALNIALVAV was run?
A: 4.5 nM

Q: AMPGVLSYV was tested. Which IC50 did it give?
A: 7.3 nM

same assay, conditions: source organism: SARS-CoV1

Q: How did the IC50 turn out when AIAACAMLLV was run?
A: 32 nM

Q: With AIILASFSA as the sequence, how does the IC50 read?
A: 176 nM

Q: Which IC50 does the source give for AIMTRCLAV here?
A: 15 nM

Q: ALIARCWYL was tested. Which IC50 did it give?
A: 17 nM

Q: ALLFLMSFTI was tested. Which IC50 did it give?
A: 199 nM

Q: With ALVCYIVMPV as the sequence, how does the IC50 read?
A: 4.4 nM
